From patent US20260061042A1, “POLYNUCLEOTIDE COMPOSITIONS AND USES THEREOF” (Pfizer Inc., priority 2024, published 2026)
Positions count from the first letter of the chain named. Numbers in names are those of the source. Where “and” joins values, the source holds several entries; their conditions need not be identical. Equal values may be shown once. Entries after “also recorded” stand apart in the source; their conditions may differ.

T1: E. coli CFT073 PapG-II lectin domain PapGLD variant N96S G104A, SEQ ID NO: 16 (Escherichia coli, UniProt A0A0H2VAQ6, G124A/N116S)
T1 sequence (A0A0H2VAQ6 with tags, fused parts or gaps N116S/G124A): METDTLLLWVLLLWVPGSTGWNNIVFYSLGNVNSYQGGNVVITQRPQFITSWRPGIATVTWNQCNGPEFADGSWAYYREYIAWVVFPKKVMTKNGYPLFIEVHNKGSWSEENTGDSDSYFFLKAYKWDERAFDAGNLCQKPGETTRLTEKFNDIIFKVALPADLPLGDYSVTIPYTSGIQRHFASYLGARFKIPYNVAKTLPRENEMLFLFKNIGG

B1: PapG^LD N96S R170A: PapG lectin domain N96S with R170A ligand binding site mutation; SEQ ID NO: 23 (protein)
chain: T1 sequence (A0A0H2VAQ6 with tags, fused parts or gaps N116S/G124A) with A124G, R190A
B2: PapG^LD N96S W107A: PapG lectin domain N96S with W107A ligand binding site mutation; SEQ ID NO: 22 (protein)
chain: T1 sequence (A0A0H2VAQ6 with tags, fused parts or gaps N116S/G124A) with A124G, W127A
B3: PapG^LD N96S K172A: PapG lectin domain N96S with K172A ligand binding site mutation; SEQ ID NO: 24 (protein)
chain: T1 sequence (A0A0H2VAQ6 with tags, fused parts or gaps N116S/G124A) with A124G, K192A

Tests used:
[1] = test system: E. coli strain CFT073 agglutination of human red blood cells; test: PapG hemagglutination (HA) assay; assay type: cell-based; settings: pre-incubation with E. coli CFT073 WT strain, human RBC
Protocol: 16. PapG Hemagglutination (HA) Assay
(§1) A PapG HA assay was developed based on procedures described previously. WT E. coli strain CFT073 bacteria were streaked out from a frozen glycerol stock for single colonies on a tryptic soy blood agar plate. To grow bacteria for use in the HA assay, bacteria were cultured overnight in Luria Bertani liquid media at 37° C. and shaking at 230 rpm. The next morning, bacteria were washed once with 1×PBS and normalized to an OD540 of 1.0 in PBS. 30 μL of bacteria were then placed in a V-bottom 96-well plate (Corning, 3894) and serially diluted across the plate. […] After this incubation, 60 μL of a 1.75% red blood cell (Human Red Blood Cells, Washed, Rockland Immunochemicals R407-0050) solution (diluted from 10% stock using 1×PBS) was added to all the wells in the plate. The plate was incubated for 2 hours at 4° C. and then imaged using a light box and camera or ImageQuant System. To collect quantitative data, assay plates were analyzed using a Clariostar instrument. Absorbance was measured at a wavelength of 540 nm, which was the maximum absorbance observed using an RBC only control well, and a read diameter of 4 mm within each well. Absorbance was normalized using blank controls (1×PBS only).
7. Development of a Hemagglutination (HA) Assay as a Functional Assay to Evaluate Sera from PapG Immunized Animals. […]

[2] = test system: E. coli strain CFT073 (PapG-dependent agglutination of human red blood cells); test: PapG hemagglutination (HA) assay; assay type: cell-based, Escherichia coli CFT073; human red blood cells; settings: pre-incubation of E. coli CFT073 WT strain with GbO3, then human RBCs
Protocol: as §1
PapG mediates the ability of E. coli to agglutinate human red blood cells (RBC).

[3] = target: T1, E. coli CFT073 PapG-II lectin domain PapGLD variant N96S G104A, SEQ ID NO: 16; test: SYPRO orange thermal shift with GbO3; assay type: binding; settings: shift in melting temperature in the presence of GbO3 vs apo; 3 replicates; PBS pH 7.4, 4% DMSO
Protocol: (§2) PapG proteins were added to assay buffer (consisting of 4% DMSO, 1:1000 dilution of SYPRO orange (Invitrogen S6650) in PBS pH 7.4) at a final concentration of […]. Melt curves were analyzed in a QuantStudio 6 Real-time PCR system (ThermoFisher) using a dissociation protocol from 25° C. to 99° C., at 0.05° C./second. ROX was specified as the reporter.
(§3) The thermal stability of PapG WT and mutant proteins were determined using a SYPRO orange thermal shift-based differential scanning fluorimetry assay, wherein Tm designates the temperature at which 50% of the protein is unfolded. Non-covalent ligands often stabilize protein targets upon specific binding, resulting in an increase in protein melting temperature. Tm were therefore determined in the presence and absence of GbO3 for PapG, and the difference in Tm (ΔTm) of protein in the presence of ligand relative to the apo form was calculated.

[4] = Thermal shift in the presence of GbO3; assay type: binding; settings: in the presence of GbO3 relative to the apo form
Protocol: as §2
The thermal stability of PapG WT and mutant proteins were determined using a SYPRO orange thermal shift-based differential scanning fluorimetry assay, wherein Tm designates the temperature at which 50% of the protein is unfolded. Non-covalent ligands often stabilize protein targets upon specific binding, resulting in an increase in protein melting temperature.

[5] = PapG Luminex ligand binding assay with globoside GbO4; settings: result in words
Protocol: 9. PapG Ligand Binding Assay with Globoside GbO4
To determine the ability of PapGLD mutants to bind the porcine derived globotetraosyl ceramide ligand GalNAc-Gal-Gal-Glc-ceramide (GbO4), a Luminex ligand binding assay was developed. Surfactant Protein-A (SP-A) was coupled to the surface of MagPlex beads by EDC/NHS, to capture the lipid tail of the globotetraosyl ceramide. The Globotetraosyl ceramide/SP-A beads were incubated with an eight-point threefold titration of PapG in a 96 well flat bottom white plate with final volume of 100 microliters of 50 mM HEPES PH 7.4, 10 mM NaCl, 0.0005% Tween 20 shaking at 300 rpm, 4° C. overnight. After 20-24 hours the ligand binding plates were read on a FlexMap 3D plate reader for measurement of well-bead region specific MFI. Ligand binding equilibrium dissociation constants (Kd) were calculated assuming one site specific binding and interpolated using non-linear curve fitting (GraphPad Prism) as the ligand concentration needed to achieve half-maximal binding. The Luminex derived apparent Kd values are based on approximately fifty bead counts per assay sample.
(§4) Binding of PapG proteins to GbO2 or GbO4 ligands was evaluated using a Luminex platform wherein ligands were coupled to MagPlex beads via surfactant protein A (for […]) or directly using […] conjugation (for […]). This assay was used to rank order binding affinities of the mutants, reported as Kd values interpolated from protein antigen titration curves (Table 7).

[6] = Thermal shift (SYPRO orange) melting temperature, apo form; assay type: physicochemical; settings: apo state, PBS pH 7.4
Protocol: as §2, §3

[7] = PapG Luminex ligand binding assay with globoside compound GbO2Mpo; settings: result in words
Protocol: 10. PapG Ligand Binding Assay with Globoside Compound GbO2Mpo
To determine Luminex ligand binding affinities of PapG mutants for the synthetic globoside ligand Gal-Glc-phenoxy-octyl-amine (GbO2Mpo), a Luminex ligand binding assay was developed based on the direct coupling of the amine reactive globoside ligand to the EDC/NHS activated carboxylic surface of MagPlex beads. Synthesis of GbO2Mpo ligand with an octyl amine linker (for coupling to beads) was performed via methods described previously. The GbO2Mpo beads were incubated with an 8-point, threefold titration of PapG in a 96-well flat bottom white plate with final volume of 100 μl of 50 mM HEPES pH 7.4, 10 mM NaCl, 0.0005% Tween 20 shaking at 300 rpm, 4° C. overnight. After 20-24 hours the ligand binding plates were read on a FlexMap 3D plate reader for measurement of well-bead region specific MFI.
as §4

| Molecule | inhibition of hemagglutination [1] | inhibition of hemagglutination (in words) [2] | ΔTm (Average) [3] | ΔTm (Average) [4] | binding to GbO4 ligand [5] | Tm (Ave.) [6] | binding to GbO2 ligand [7] |
| --- | --- | --- | --- | --- | --- | --- | --- |
| Globotriaosylceramide [GbO3] [listing 1 of 2 here] | efficiently blocks agglutination of RBCs; also recorded: concentration-dependent inhibition of hemagglutination | – | – | – | – | – | – |
| Globotriaosylceramide [GbO3] [listing 2 of 2 here] | – | efficiently blocks agglutination of RBCs; also recorded: concentration-dependent inhibition of hemagglutination | < 0.5 °C and 0.22 °C | – | – | – | – |
| B1 | – | – | – | 0.33 °C | prevent binding to GbO4; also recorded: lower the binding affinity; also recorded: eliminate ligand binding | 55.83 °C | – |
| B2 | – | – | – | 0.22 °C | prevent binding to GbO4; also recorded: lower the binding affinity; also recorded: eliminate ligand binding | 62.64 °C | – |
| B3 | – | – | – | 0.42 °C | prevent binding to GbO4; also recorded: reduced binding; also recorded: lower the binding affinity; also recorded: eliminate ligand binding | 56.38 °C | reduced binding |
